Data as given in the supplement of paper PMC11780869.

Test system: Bacillus subtilis
Assay: cleaved RNA product abundance (RNA/gDNA barcode ratio) relative to median wild-type variant (ratio to wild type); higher = more accumulation of the downstream cleavage product
In short: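 Reporter mRNAs based on truncated aprE or tetM carried barcoded, mutagenized RNase Y cleavage-site windows built from oligos with a 9% error rate and were integrated into the B. subtilis chromosome. Cultures grew in LB at 37°C from OD600 0.0003 to 0.3. Cleaved RNA was gel-selected, reverse transcribed and barcode-sequenced together with genomic DNA barcodes, and UMIs were collapsed. Cleaved product abundance is the per-construct ratio of RNA to gDNA barcodes, scaled to the median of constructs carrying the unmutated site.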

[1] = experiment (reporter, strain, medium): exp 2b: truncated aprE reporter, strain BJT200, cleavage site: cggR-gapA (positions -7 to +36 mutated)
[2] = experiment (reporter, strain, medium): exp 4a: truncated aprE reporter, strain BJT201 with 2% xylose (RNase J1 expressed), cleavage site: cggR-gapA (positions -7 to +36 mutated)
[3] = experiment (reporter, strain, medium): exp 8a: truncated aprE reporter, strain BJT201 with 2% xylose (RNase J1 expressed), cleavage site: glnRA (positions -5 to +31 mutated)

Sequence | cleaved RNA product abundance [1] | cleaved RNA product abundance [2] | cleaved RNA product abundance [3]
ACAGACGAAGGAGCCGCAAAGAAGTTATTAATGGATGTATAATCCCTCAATATAAATATCTCTCACTTATTTAAA | 0.0434 | 0.211 | –
ACAGACGAAGGAGCCGCAAAGAAGTTATTAAGGTATGAATAATCCCTCGATATAAATATCTCTCACTTATTTAAA | 0.0823 | 0.0744 | –
CGACATGTCCCGCTTCTTTCATTAATCCGTTATCAACTGTTTTGCTATATACATATACCTTTTAAGAGGAGGAAT | – | – | 0.348
ACAGACGAAGGAGCCGCAAAGAAGTTATTTAGGGAAGAATAATCCCTCAATATAAATATCTCTCACTTATTTAAA | – | 0.572 | –
ACAGACGAAGGAGCCGCAAAGAAGTTATTAAGGGATGAATAGTCCCTGAATATAAATATCTCTCACTTATTTAAA | – | 0.334 | –
ACAGACGAAGGAGCCGCAAAGAAGTTATTAAGAGATGAATAATCCATCAATATAAATATCTCTCACTTATTTAAA | 0.142 | 0.19 | –
ACAGACGAAGGAGCCGCAAAGAAGTTATTAACGGATGAATACTCCCTCAATATAAATATCTCTCACTTATTTAAA | – | 0.133 | –
CGACATGTCCCGCTTCTTTCATTAATCCGTAAGCAACTGTTTTGCTATATAAATTTACCTTTTAAGAGGAGGAAT | – | – | 0.474
ACAGACGAAGGAGCCGCAAAGAAGTTATTAAGGAATGAATAATCCCTCAATATAGATATCTCTCACTTATTTAAA | – | 0.101 | –
CGACATGTCCCGCTTCTTTCATTAATCCGTTAGCACCTGTTTTGCTATATACAGTTACCTTTTAAGAGGAGGAAT | – | – | 0.393
ACAGACGAAGGAGCCGCAAAGAAGTTTTTAAGGGATGAATAATCCCTCAATATAAACATCTCTCACTTATTTAAA | – | 0.208 | –
CGACATGTCCCGCTTCTTTCATTAATCCGTTAGCTATTGTTTTGCTATATACATTTACCTTTTAAGAGGAGGAAT | – | – | 0.432
ACAGACGAAGGAGCCGCAAAGAAGTTATTAAGGCATGAATAATCCCTCACTATAAATATCTCTCACTTATTTAAA | 0.083 | 0.136 | –
ACAGACGAAGGAGCCGCAAAGAAGTTATTAAGGGATGAATAATTCTTCAATATAAATATCTCTCACTTATTTAAA | – | 0.18 | –
CGACATGTCCCGCTTCTTTCATTATTCCGTTAGCAACTGTTTAGGTATATACATTTACCTTTTAAGAGGAGGAAT | – | – | 0.443
ACAGACGAAGGAGCCGCAAAGAAGTTATTAAGGGATGAATAATCACTCAACATAAATATCTCTCACTTATTTAAA | – | 0.123 | –
CGACATGTCCCGCTTCTTTCATTAATCCGTTAGCAACTGTTTAGCTATATACATTTAACTTTTAAGAGGAGGAAT | – | – | 0.462
ACAGACGAAGGAGCCGCAAAGAACTTATTAAGGAATGAATAATCCCTCAATATAAATATCTCTCACTTATTTAAA | – | 0.117 | –
ACAGACGAAGGAGCCGCAAAGAAGCTATTAAGGGATGAATAATCCCTTAATATAAATATCTCTCACTTATTTAAA | – | 0.827 | –
ACAGACGAAGGAGCCGCAAAGAAGTTATTAAGGGATAAATAATCCCTTAATATAAATATCTCTCACTTATTTAAA | 0.71 | 0.48 | –
ACAGACGAAGGAGCCGCAAAGAAGTTATTAAGGGATGAACAATGCCTCAATATAAATATCTCTCACTTATTTAAA | – | 0.136 | –
ACAGACGAAGGAGCCGCAAAGAAGTTATTAAGGGATAAATAATTCCTCAATATAAATATCTCTCACTTATTTAAA | – | 0.294 | –
ACAGACGAAGGAGCCGCAAAGCAGTTATTAAGGGATGAATAATCCCTAAATATAAATATCTCTCACTTATTTAAA | – | 0.591 | –
ACAGACGAAGGAGCCGCAAAGAAGTTATTAAGGGATGAATTATCCCTTAATATAAATATCTCTCACTTATTTAAA | – | 0.438 | –
